Experimental data: patent publication US20220387557A1 (OXFORD UNIVERSITY INNOVATION, published 2022)

Key:
[1] = molecular target: T1, Fc tagged human TNFR2 (Sino Biological) (human, UniProt P20333 23-257); assay: SPR (Biacore T200) single cycle kinetics, Fc-tagged receptor captured on Protein A chip, TNF protein as analyte at 1.67-15 nM
T1 construct: Bought reagent; also called hTNFR2; hTNFR2-Fc; not shown: Fc tag of the bought protein
T1 sequence (looked up): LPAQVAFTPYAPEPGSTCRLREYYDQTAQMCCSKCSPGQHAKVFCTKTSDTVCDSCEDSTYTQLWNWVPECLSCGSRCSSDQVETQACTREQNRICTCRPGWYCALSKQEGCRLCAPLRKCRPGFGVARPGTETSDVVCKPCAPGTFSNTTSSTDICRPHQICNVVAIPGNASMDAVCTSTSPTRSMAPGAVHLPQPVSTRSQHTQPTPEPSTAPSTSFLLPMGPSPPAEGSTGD
Description: (§1) Single cycle kinetic analysis was performed using a Biacore T200 (serial no. 1909913) running Biacore T200 Evaluation Software V2.0.1 (Uppsala, Sweden). All experiments were run at 25° C. with HBS-P+ running buffer (pH 7.4) (GE Healthcare, Little Chalfont, UK).
(§2) Due to the limit in the number of available flow cells for analysis (three Fc per analysis, Fc2, Fc3 and Fc4, with Fc1 always being used as blank reference for non-specific subtraction), receptor binding was assessed in two separate overlapping runs using either: hTNFR1 (Fc2), hTNFR2 (Fc3) and mTNFR1 (Fc4), or; hTNFR1 (Fc2), […] and mTNFR2 (Fc4). Receptors were diluted in running buffer to a concentration of ˜4 μg/mL and at the start of each cycle loaded onto Fc2, Fc3 and Fc4 of a Protein A chip (GE Healthcare, Little Chalfont, UK) at a flow rate of 10 μL/min to give an RU of 40-100. The surface was then allowed to stabilise. Single cycle kinetic data was obtained at a flow rate of 45 μL/min. […] The association phase for the three injections of increasing concentrations of TNF was monitored for 240 seconds and a single dissociation phase was measured for 2700 seconds following the last injection of TNF. Regeneration of the Protein A surface was conducted using 10 mM glycine-HCl pH 1.5. The signal from the reference channel Fc1 (no receptor) was subtracted from that of Fc2, Fc3 and Fc4 to correct for differences in non-specific binding to a reference surface.
(§3) Controls were used to ensure the integrity of the receptors during the Biacore run.

[2] = molecular target: T2, Fc tagged mouse TNFR2 (Sino Biological) (mouse, UniProt P25119 23-258); assay: as above
T2 construct: Bought reagent; also called mTNFR2; mTNF2; not shown: Fc tag of the bought protein
T2 sequence (looked up): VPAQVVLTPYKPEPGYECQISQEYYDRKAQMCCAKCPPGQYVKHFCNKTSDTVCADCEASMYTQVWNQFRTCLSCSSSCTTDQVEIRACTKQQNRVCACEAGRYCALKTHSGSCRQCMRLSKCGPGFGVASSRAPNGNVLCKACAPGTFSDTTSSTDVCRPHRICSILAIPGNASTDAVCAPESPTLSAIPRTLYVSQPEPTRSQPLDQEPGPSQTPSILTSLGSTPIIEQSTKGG
Description: as §1, §2, §3

[3] = molecular target: T3, Fc tagged mouse TNFR1 (Sino Biological) (mouse, UniProt P25118 22-212, limits assumed); assay: SPR, Biacore T200 multi cycle kinetics, receptor-Fc captured on Protein A chip, TNF 1.25-40 nM, 1:1 model
T3 construct: Bought reagent; also called mTNFR1; mTNFR1-Fc; not shown: Fc tag of the bought protein
T3 sequence (looked up): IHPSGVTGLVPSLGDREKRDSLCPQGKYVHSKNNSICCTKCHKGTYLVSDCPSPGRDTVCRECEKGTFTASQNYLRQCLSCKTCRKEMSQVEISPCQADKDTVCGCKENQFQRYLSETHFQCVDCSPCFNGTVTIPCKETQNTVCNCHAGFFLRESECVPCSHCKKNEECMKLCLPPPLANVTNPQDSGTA
Description: (§4) Multi cycle kinetics analysis of binding to hTNFR1, hTNFR2, mTNFR1 and mTNFR2 was performed on the 10 lead variants using a Biacore T200 (serial no. 1909913) instrument running Biacore T200 Evaluation Software V3.0.1 (Uppsala, Sweden) to characterise further the binding to these receptors.
(§5) As with the single cycle kinetics, receptor binding was assessed in two separate experiments. In the first set of experiments binding to hTNFR1 (Fc2), hTNFR2 (Fc3) and mTNFR1 (Fc4) was assessed. In the second set of experiments the extent of mTNF2 (Fc4) binding was assessed using hTNFR1 (Fc2) and hTNFR2 (Fc3) as controls. All receptors were diluted in running buffer to a concentration of ˜4 μg/mL and at the start of each cycle loaded onto Fc2, Fc3 and Fc4 of a Protein A CM5 chip and captured at a flow rate of 10 μL/min to give an RU of ˜40-100. The surface was then allowed to stabilise. All kinetic data was obtained using a flow rate of 75 μl/min to minimise any potential mass transfer effects. […] The association phase of TNF was monitored for 280 seconds and the dissociation phase was measured for 2100 seconds. […] Regeneration of the Protein A surface was conducted using two injections of 10 mM glycine-HCL pH 1.5 at the end of each cycle. The signal from the reference channel Fc1 was subtracted from that of Fc2, Fc3 and Fc4 to correct for differences in non-specific binding to a reference surface, and a global Rmax parameter was used in the 1-to-1 binding model.

[4] = molecular target: T4, Fc tagged human TNFR1 (Sino Biological) (human, UniProt P19438 22-211, limits assumed); assay: as above
T4 construct: Bought reagent; also called hTNFR1; hTNFR1-Fc; not shown: Fc tag of the bought protein
T4 sequence (looked up): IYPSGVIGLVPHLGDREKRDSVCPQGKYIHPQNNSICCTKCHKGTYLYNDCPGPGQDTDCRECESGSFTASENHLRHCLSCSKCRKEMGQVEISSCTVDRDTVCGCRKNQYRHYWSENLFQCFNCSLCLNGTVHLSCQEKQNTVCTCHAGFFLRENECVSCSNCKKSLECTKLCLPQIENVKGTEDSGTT
Description: as §4, §5

[5] = molecular target: T3, Fc tagged mouse TNFR1 (Sino Biological); assay: SPR, Biacore T200 single cycle kinetics, receptor-Fc captured on Protein A chip, TNF 1.67-15 nM
Description: as §1, §2

[6] = molecular target: T4, Fc tagged human TNFR1 (Sino Biological); assay: as above
Description: as §1, §2

[7] = molecular target: T3, Fc tagged mouse TNFR1 (Sino Biological); assay: SPR, Biacore single cycle kinetics, stability study, after 1 year at -20° C.
Description: as §2
(§6) At day zero (prior to freezing) and following thawing on ice after 3 months and 1 year the following assays were performed: [0341] SDS-PAGE [0342] OD280 nm [0343] Single cycle Biacore for binding to hTNFR1, hTNFR2 and mTNFR1

[8] = molecular target: T4, Fc tagged human TNFR1 (Sino Biological); assay: as above
Description: as §2, §6

[9] = molecular target: T3, Fc tagged mouse TNFR1 (Sino Biological); assay: SPR, Biacore single cycle kinetics, stability study, after 1 year at -80° C.
Description: as §2, §6

[10] = molecular target: T4, Fc tagged human TNFR1 (Sino Biological); assay: as above
Description: as §2, §6

[11] = molecular target: T3, Fc tagged mouse TNFR1 (Sino Biological); assay: SPR, Biacore single cycle kinetics, stability study, before freezing (t=0)
Description: as §2, §6

[12] = molecular target: T4, Fc tagged human TNFR1 (Sino Biological); assay: as above
Description: as §2, §6

Row | Binder | binding result [1] | binding result [2] | Kd [3] [nM] | Kd [4] [nM] | Kd [5] [nM] | Kd [6] [nM] | Kd [7] [nM] | Kd [8] [nM] | Kd [9] [nM] | Kd [10] [nM] | Kd [11] [nM] | Kd [12] [nM]
1 | mouse TNF (mTNF), soluble protein expressed from pANT65 (ligand, UniProt P06804 80-235, looked up, not shown: C-terminal FLAG tag and His6 tag from vector pANT65) LRSSSQNSSDKPVAHVVANHQVEEQLEWLSQRANALLANGMDLKDNQLVVPADGLYLVYSQVLFKGQGCPDYVLLTHTVSRFAISYQEKVNLLSAVKSPCPKDTPEGAELKPWYEPIYLGGVFQLEKGDQLSAEVNLPKYLDFAESGQVYFGVIAL | binds | binds |  |  |  |  |  |  |  |  |  | 
2 | TNF mutein B5 (ligand, Human TNF mutein, TGTYVD at positions 84-89; not shown: C-terminal FLAG tag and His6 tag from vector pANT65) VHSSSRTPSDKPVAHVVANPQAEGQLQWLNRRANALLANGVELRDNQLVVPSEGLYLIYSQVLFKGQGCPSTHVLLTHTISRITGTYVDKVNLLSAIKSPCQRETPEGAEAKPWYEPIYLGGVFQLEKGDRLSAEINRPDYLDFAESGQVYFGIIAL | no binding (tested: 15 nM) | no binding (tested: 15 nM) | 0.289 | 0.0591 | 0.128 | 0.0199 | 0.115 | 0.0493 | 0.0977 | 0.0446 | 0.0771 | 0.0355
3 | TNF mutein B6 (ligand, Human TNF mutein, TGTYSY at positions 84-89; not shown: C-terminal FLAG tag and His6 tag from vector pANT65) VRSSSRTPSDKPVAHVVANPQAEGQLQWLNRRANALLANGVELRDNQLVVPSEGLYLIYSQVLFKGQGCPSTHVLLTHTISRITGTYSYKVNLLSAIKSPCQRETPEGAEAKPWYEPIYLGGVFQLEKGDRLSAEINRPDYLDFAESGQVYFGIIAL | no binding (tested: 15 nM) | no binding (tested: 15 nM) | 0.59 | 0.339 | 0.304 | 0.0169 | 0.711 | 0.0526 | 0.0474 | 0.0667 | 0.067 | 0.0969
4 | TNF mutein F3 (ligand, Human TNF mutein, TTTYRL at positions 84-89; not shown: C-terminal FLAG tag and His6 tag from vector pANT65) VRSSSRTPSDKPVAHVVANPQAEGQLQWLNRRANALLANGVELRDNQLVVPSEGLYLIYSQVLFKGQGCPSTHVLLTHTISRITTTYRLKVNLLSAIKSPCQRETPEGAEAKPWYEPIYLGGVFQLEKGDRLSAEINRPDYLDFAESGQVYFGIVAL | no binding (tested: 15 nM) |  | 5.08 | 0.462 | 7.35 | 0.635 | 0.527 | 0.0271 | 0.398 | 0.023 | 0.11 | 0.012
5 | TNF mutein F7 (ligand, Human TNF mutein, SETVVG at positions 84-89; not shown: C-terminal FLAG tag and His6 tag from vector pANT65) VHSSSRTPSDKPVAHVVANPQAEGQLQWLNRRANALLANGVELRDNQLVVPSEGLYLIYSQVLFKGQGCPSTHVLLTHTISRISETVVGKVNLLSAIKSPCQRETPEGAEAKPWYEPIYLGGVFQLEKGDRLSVEINRPDYLDFAESGQVYFGIIAL | no binding (tested: 15 nM) | no binding (tested: 15 nM) | 0.208 | 0.0465 | 0.0827 | 0.0424 | 0.111 | 0.0262 | 0.165 | 0.0353 | 0.116 | 0.022

Second part, the binder after the results:

Row | binding result [1] | binding result [2] | Kd [3] [nM] | Kd [4] [nM] | Kd [5] [nM] | Kd [6] [nM] | Kd [7] [nM] | Kd [8] [nM] | Kd [9] [nM] | Kd [10] [nM] | Kd [11] [nM] | Kd [12] [nM] | Binder
6 |  | no binding (tested: 15 nM) | 0.153 | 0.11 | 0.132 | 0.0195 |  |  |  |  |  |  | TNF mutein B4 (ligand, Human TNF mutein, SESHDG at positions 84-89; not shown: C-terminal FLAG tag and His6 tag from vector pANT65) VRSSSHTPSDKPVAHVVANPQAEGQLQWLNRRANALLANGVELRDNQLVVPSEGLYLIYSQVLFKGQGCPSTHVLLTHTISRISESHDGKVNLLSAIKSPCQRETPEGAEAKPWYEPIYLGGVFQLEKGDRLSAEINRPDYLDFAESGQVYFGIIAL
7 | no binding (tested: 15 nM) | no binding (tested: 15 nM) | 0.208 | 0.0306 | 0.0323 | 0.0129 |  |  |  |  |  |  | TNF mutein C4 (ligand, Human TNF mutein, SHSVEG at positions 84-89; not shown: C-terminal FLAG tag and His6 tag from vector pANT65) VRSSSRTPSDKPVAHVVANPQAEGQLQWLNRRANALLANGVELRDNQLVVPSEGLYLIYSQVLFKGQGCPSTHVLLTHTISRISHSVEGKVNLLSAIKSPCQRETPEGAEAKPWYEPIYLGGVFQLEKGDRLSAEINRPDYLDFAESGQVYFGIIAL
